In patent US20220017612A1 (TILOS THERAPEUTICS, published 2022):
Where “and” joins values, the source holds several entries; their conditions need not be identical. Identical values can stand only once.

T1: human LAP-TGFβ3 overexpressed on HT1080 cells (human, UniProt P10600 24-412)
T1 construct: also called HT1080-huB3
T1 sequence: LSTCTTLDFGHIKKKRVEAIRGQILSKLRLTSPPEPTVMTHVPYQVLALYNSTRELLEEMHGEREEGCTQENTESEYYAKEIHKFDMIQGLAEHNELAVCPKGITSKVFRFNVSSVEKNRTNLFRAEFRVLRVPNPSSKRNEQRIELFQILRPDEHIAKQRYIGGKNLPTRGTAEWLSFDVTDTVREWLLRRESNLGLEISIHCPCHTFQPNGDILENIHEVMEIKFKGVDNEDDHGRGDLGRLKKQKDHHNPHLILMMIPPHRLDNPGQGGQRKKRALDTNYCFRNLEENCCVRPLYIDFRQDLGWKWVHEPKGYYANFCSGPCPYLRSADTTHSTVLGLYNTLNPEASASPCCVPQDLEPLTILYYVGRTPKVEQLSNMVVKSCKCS

T2: human LAP-TGFβ2 overexpressed on HT1080 cells (human, UniProt P61812 21-414)
T2 construct: also called HT1080-huB2
T2 sequence: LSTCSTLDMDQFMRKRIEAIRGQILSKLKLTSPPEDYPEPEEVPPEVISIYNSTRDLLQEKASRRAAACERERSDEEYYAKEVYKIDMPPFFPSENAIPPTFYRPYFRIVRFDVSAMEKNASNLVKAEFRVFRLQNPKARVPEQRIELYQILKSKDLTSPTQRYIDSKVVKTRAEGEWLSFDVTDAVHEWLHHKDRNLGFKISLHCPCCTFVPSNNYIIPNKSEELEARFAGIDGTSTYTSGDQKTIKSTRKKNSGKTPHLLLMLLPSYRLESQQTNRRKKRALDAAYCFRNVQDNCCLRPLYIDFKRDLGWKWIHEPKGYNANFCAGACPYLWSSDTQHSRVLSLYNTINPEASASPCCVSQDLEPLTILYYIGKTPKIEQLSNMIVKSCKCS


Experiments:
[1] = target: T3, human LAP-TGFβ1 overexpressed on cells (human, UniProt P01137 30-390); experiment: cell-based or functional assay
[2] = target: murine LAP-TGFβ1 overexpressed on cells (mouse, UniProt P04202 30-390); experiment: cell-based or functional assay
[3] = target: T3, human LAP-TGFβ1 overexpressed on cells; experiment: cell-based or functional assay; remark: listed apart in the source
[4] = target: T4, LAP-only variant of human TGFβ1 (empty LAP) on HT1080 cells (human, UniProt P01137 30-277); experiment: flow cytometry, HT1080 cells; grey bar = no anti-LAP antibody
T4 construct: LAP without the mature cytokine; also called HT1080-emptyLAP; LAP-only construct
Protocol: (§1) This Example describes the binding of anti-LAP antibodies to LAP-TGFβ isoforms and LAP-TGFβ variants. In addition to antibodies 28G11_hIgG1, 22F9_hIgG1, and 20E6_hIgG1, anti-LAP antibodies 17G8_hIgG1, 24E3_hIgG1, and 2C9_(hyb) were also tested in this experiment. Briefly, 4×10⁵ each of (a) HT1080 cells, (b) HT1080 cells overexpressing human LAP-TGFβ1, (c) HT1080 cells overexpressing human LAP-TGFβ2, (d) HT1080 cells overexpressing human LAP-TGFβ3, (e) HT1080 cells overexpressing murine LAP-TGFβ1, (f) P3U1 cells, (g) P3U1 cells overexpressing LAP-TGFβ1 and GARP, and (h) P3U1 cells overexpressing LAP-TGFβ1 and LRRC33 were cultured in 96-well plates. The plates were centrifuged for 5 min at 1,500 rpm, liquid was removed, and cells were resuspended with 200 μL FACS buffer. The plates were centrifuged again, diluted primary antibody was added to each well, and the plates were incubated on ice for 20 minutes, followed by centrifugation. The cells were resuspended in 200 μL FACS buffer, centrifuged again, and resuspended in 50 μL diluted secondary antibody (Alexa647-anti-Human IgG or APC-anti-Mouse IgG). The plates were incubated on ice for 20 minutes in the dark, washed twice with 200 μL FACS buffer, and cells from each well (in 200 μL FACS buffer) were read on the Attune NXT instrument.
(§2) Cells were processed for flow cytometry in the same manner described above for the isoform-specific binding experiments.

[5] = target: T5, human LAP-TGFβ1 with K27C and Y75C mutations on HT1080 cells (human, UniProt P01137 30-390); experiment: as above
T5 construct: also called closed conformation
Protocol: as §1, §2

[6] = target: T6, human-chicken LAP-TGFβ1 chimera #2.2 on HT1080 cells (human/chicken chimera, UniProt P01137 30-390); experiment: as above
T6 construct: also called HT1080-ch2.2
Protocol: as §1, §2

[7] = target: T7, human LAP-TGFβ1 with a Y74T mutation on HT1080 cells (human, UniProt P01137 30-390); experiment: as above
T7 construct: also called HT1080-Y74T; open conformation
Protocol: as §1, §2

[8] = target: T8, fusion protein of a human IgG1 Fc domain and human LAP-TGFβ1 (human, UniProt P01137 30-390); experiment: BLI, antibody on tip, 1:1 model
T8 construct: printed both as Fc-huB1 and LAP-TGFβ-Fc; also called Fc-huB1; Fc-human LAP
Protocol: (§3) The chimeric antibodies were biotinylated using EZ-Link SulfoNHS-LC-Biotin (ThermoFisher). A streptavidin-functionalized tip was equilibrated in binding buffer (10 mM sodium phosphate, 150 mM sodium chloride, 1% (w/v) bovine serum albumin, 0.05% (w/v) sodium azide, pH 7.4). The tip was dipped in a 10 μg/mL solution of biotinylated, chimeric anti-LAP in binding buffer for 15 seconds to load the tip with antibody. The antibody-loaded tip was then washed in binding buffer and placed in a solution containing 0-24 nM of LAP-TGFβ1 (either a fusion protein containing a human IgG1 Fc domain fused to human LAP-TGFβ1 or a murine LAP-TGFβ1 with a C-terminal polyhistidine purification tag). The antigen was allowed to bind to antibody for 5 minutes (association phase), and then the tip was moved to binding buffer (dissociation phase). The association and dissociation phases were fit to a 1:1 binding model to determine the binding rate constants.

[9] = target: T9, murine LAP-TGFβ1 with a C-terminal polyhistidine purification tag (mouse, UniProt P04202 30-390); experiment: BLI, antibody on tip, 1:1 model
T9 construct: also called Mouse LAP-TGFβ1
Protocol: as §3

[10] = target: T1, human LAP-TGFβ3 overexpressed on HT1080 …; experiment: flow cytometry titration, HT1080-huB3 cells
Protocol: as §1

[11] = target: T10, mature human TGFβ1 (free TGFβ1, without LAP) (human, UniProt P01137 279-390); experiment: TGFβ1 ELISA after pre-incubation of 1000 pg mature TGFβ1 with antibody; loss of signal reflects binding
T10 construct: also called mature TGFβ; free human TGFβ1
Protocol: To determine whether anti-LAP antibodies 28G11_hIgG1, 22F9_hIgG1, 20E6_hIgG1, 17G8_hIgG1, and 24E3_hIgG1, bind to free human TGFβ1 (i.e., mature TGFβ1 that lacks LAP), the ability of the antibodies to inhibit an anti-TGFβ ELISA was evaluated. Briefly, mature TGFβ1 (1000 pg) was incubated with the indicated anti-LAP antibodies at 10 μg/mL, an isotype control antibody as a negative control or the commercially available anti-TGFβ antibody 1D11 as a positive control for 10 minutes on ice. For example, the 1D11 antibody is commercially available from any number of sellers, for example Bio x Cell Inc. (West Lebanon, N.H.). Supernatants were assayed in a TGFβ1 ELISA (R&D Systems) according to the manufacturer instructions to measure free TGFβ1. […] Note that Figure and FIG. are used interchangeably in this application.

[12] = target: T2, human LAP-TGFβ2 overexpressed on HT1080 …; experiment: flow cytometry titration, HT1080-huB2 cells
Protocol: as §1

[13] = target: T11, human-chicken LAP-TGFβ1 chimera #2.3 on HT1080 cells (human/chicken chimera, UniProt P01137 30-390); experiment: flow cytometry, HT1080 cells; grey bar = no anti-LAP antibody
T11 construct: also called HT1080-ch2.3
Protocol: as §1, §2

[14] = target: T12, human GARP and human LAP-TGFβ1 co-expressed on P3U1 cells (human, UniProt Q14392 20-662); experiment: flow cytometry, P3U1 cells
T12 construct: whole, on cells; also called P3U1 cells over-expressing human GARP and LAP-TGFβ1
Protocol: as §1

[15] = target: T3, human LAP-TGFβ1 overexpressed on cells; experiment: flow cytometry; legend box on the sheet: black HT1080-null, grey HT1080-huB1

T4 sequence (P01137 30-277, change not shown): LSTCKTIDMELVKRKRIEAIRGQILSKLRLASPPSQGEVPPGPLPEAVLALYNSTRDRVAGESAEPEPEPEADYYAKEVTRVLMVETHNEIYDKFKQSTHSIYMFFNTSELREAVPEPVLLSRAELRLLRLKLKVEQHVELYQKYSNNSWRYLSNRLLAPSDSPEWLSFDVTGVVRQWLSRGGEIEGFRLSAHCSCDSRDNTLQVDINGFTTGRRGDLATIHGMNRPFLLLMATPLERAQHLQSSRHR
T10 sequence (P01137 279-390 limits assumed): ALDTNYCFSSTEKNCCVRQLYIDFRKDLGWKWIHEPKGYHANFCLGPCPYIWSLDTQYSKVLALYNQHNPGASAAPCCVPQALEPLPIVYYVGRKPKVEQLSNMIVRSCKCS
T7 sequence (P01137 other isoform, or with tags, fused parts or gaps Y74T Y74T): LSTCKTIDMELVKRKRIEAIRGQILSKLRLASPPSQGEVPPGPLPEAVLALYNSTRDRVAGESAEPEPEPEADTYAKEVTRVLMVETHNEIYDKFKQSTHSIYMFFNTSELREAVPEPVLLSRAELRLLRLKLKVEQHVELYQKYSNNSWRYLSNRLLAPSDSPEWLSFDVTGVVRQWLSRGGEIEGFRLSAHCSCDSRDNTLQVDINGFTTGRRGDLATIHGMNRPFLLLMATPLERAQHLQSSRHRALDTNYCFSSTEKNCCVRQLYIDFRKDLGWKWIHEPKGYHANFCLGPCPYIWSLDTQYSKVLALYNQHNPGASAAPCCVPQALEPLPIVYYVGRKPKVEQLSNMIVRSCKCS
T5 sequence (P01137 other isoform, or with tags, fused parts or gaps K27C Y75C K27C Y75C): as the sequence (P01137 other isoform, or with tags, fused parts or gaps Y74T Y74T) above, with K27C, T74Y, Y75C counted along it
T8 sequence (P01137 30-390 limits assumed): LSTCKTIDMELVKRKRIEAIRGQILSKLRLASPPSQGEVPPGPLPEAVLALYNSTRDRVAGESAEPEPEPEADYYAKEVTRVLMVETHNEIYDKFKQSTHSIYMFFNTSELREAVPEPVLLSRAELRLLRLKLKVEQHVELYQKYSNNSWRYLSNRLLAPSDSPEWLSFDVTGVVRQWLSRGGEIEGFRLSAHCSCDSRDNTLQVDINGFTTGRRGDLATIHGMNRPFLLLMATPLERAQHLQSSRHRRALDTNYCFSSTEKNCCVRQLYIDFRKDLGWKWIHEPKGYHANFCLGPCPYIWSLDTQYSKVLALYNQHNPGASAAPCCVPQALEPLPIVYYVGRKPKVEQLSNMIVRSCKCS
T3 sequence (P01137 30-390): as the sequence (P01137 30-390 limits assumed) above
murine LAP-TGFβ1 overexpressed on cells, sequence (P04202 30-390): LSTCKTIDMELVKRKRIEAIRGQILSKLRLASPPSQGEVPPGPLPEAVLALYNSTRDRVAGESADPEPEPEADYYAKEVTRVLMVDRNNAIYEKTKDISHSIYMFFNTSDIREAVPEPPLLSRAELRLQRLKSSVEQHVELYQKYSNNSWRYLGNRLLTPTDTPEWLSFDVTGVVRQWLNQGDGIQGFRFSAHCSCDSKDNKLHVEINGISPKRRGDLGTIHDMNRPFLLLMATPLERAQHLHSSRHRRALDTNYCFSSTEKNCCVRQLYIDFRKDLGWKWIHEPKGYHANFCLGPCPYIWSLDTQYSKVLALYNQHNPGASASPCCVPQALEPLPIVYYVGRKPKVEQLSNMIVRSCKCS
T9 sequence (P04202 30-390 limits assumed): as the sequence (P04202 30-390) above
T6 sequence (P01137 other isoform, or with tags, fused parts or gaps mutant): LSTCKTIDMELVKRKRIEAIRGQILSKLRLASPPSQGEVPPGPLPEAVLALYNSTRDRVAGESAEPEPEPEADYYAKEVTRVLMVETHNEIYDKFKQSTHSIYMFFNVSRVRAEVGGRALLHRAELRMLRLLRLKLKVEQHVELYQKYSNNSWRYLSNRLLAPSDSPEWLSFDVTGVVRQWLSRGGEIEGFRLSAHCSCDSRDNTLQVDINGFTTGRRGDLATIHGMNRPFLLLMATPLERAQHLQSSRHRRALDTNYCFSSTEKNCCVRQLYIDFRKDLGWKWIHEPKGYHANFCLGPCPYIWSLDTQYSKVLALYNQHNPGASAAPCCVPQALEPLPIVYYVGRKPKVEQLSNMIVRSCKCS
T11 sequence (P01137 other isoform, or with tags, fused parts or gaps mutant): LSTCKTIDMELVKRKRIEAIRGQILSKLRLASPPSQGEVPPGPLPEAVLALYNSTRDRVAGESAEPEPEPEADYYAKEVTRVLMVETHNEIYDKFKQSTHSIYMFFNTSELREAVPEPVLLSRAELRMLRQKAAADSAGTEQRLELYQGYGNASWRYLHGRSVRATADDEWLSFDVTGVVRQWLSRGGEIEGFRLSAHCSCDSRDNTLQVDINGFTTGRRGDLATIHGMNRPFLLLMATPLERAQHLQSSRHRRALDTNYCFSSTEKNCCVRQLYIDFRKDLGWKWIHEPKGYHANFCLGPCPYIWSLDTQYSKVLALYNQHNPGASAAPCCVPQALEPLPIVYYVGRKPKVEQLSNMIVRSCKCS
T12 sequence (chain, as listed by the source, chain 1 of 2): as the sequence (P01137 30-390 limits assumed) above
T12 sequence (Q14392 20-662, chain 2 of 2): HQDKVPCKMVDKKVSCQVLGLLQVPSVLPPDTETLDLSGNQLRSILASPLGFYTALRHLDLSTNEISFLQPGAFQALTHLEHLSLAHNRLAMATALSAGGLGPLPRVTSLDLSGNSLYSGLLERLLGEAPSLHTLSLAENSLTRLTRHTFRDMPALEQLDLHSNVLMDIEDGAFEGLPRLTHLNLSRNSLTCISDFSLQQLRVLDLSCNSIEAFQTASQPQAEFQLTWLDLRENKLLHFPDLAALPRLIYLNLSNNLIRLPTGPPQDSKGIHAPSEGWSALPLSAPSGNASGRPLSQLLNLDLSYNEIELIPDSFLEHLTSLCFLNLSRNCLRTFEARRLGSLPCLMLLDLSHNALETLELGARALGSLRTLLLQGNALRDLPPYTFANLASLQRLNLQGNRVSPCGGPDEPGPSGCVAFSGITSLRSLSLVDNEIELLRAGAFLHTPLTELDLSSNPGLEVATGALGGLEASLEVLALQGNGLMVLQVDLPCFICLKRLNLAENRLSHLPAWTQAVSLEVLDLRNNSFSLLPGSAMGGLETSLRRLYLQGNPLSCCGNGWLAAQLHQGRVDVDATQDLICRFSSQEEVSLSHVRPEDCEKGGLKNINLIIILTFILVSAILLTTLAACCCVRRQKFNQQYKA

Row | Binder | binding result [4] | binding result [5] | binding result [6] | binding result [7] | binding result [10] | binding result [11] | binding result [12] | IC50 of inhibition of TGFβ1 activation [1] | IC50 of inhibition of TGFβ1 activation [2] | binding result [13] | binding result [14] | binding result [15] | further results
1 | 28G11_hIgG1 (antibody, V domains shown) VH: EVKLVESGGGLVQPGGSLSLSCAASGFTFTDYYMSWVRQPPGKALEWLGFIRNKPNGYTTEYSASVKGRFTISRDNSQSILYLQMNVLRAEDSATYYCARYTGGGYFDYWGQGTTLTVSS VL: DIQMTQTTSSLSASLGDRLTISCRASQDISNYLNWYQQKPDGTVKLLIYYTSRLHSGVPSRFSGSGSGTDYSLTISNLEQADIATYFCQQGDTLPWTFGGGTKLEIK | no binding | binds | no binding | no binding | no binding (tested: about 800 ng/well) | no binding (tested: 10 µg/mL) | no binding (tested: about 800 ng/well) | – | – | – | – | – | IC50 of inhibition of TGFβ1 activation (ELISA of active TGFβ1) [1]: 1.4 µg/mL; IC50 of inhibition of TGFβ1 activation (ELISA of active TGFβ1) [2]: 1 µg/mL; Inhibition of human TGFβ1 activation (IC50) [3]: 2.3 µg/mL; Kd [8]: 670 pM; koff [8]: 0.00036 s⁻¹; kon [8]: 540000 M⁻¹ s⁻¹; Kd [9]: 190 pM; koff [9]: 0.000158 s⁻¹; kon [9]: 840000 M⁻¹ s⁻¹
2 | 24E3_hIgG1 (antibody, V domains shown) VH: QAYLQQSGAELVRPGASVKMSCKASGYTFTSYNMHWVKQTPRQGLEWIGAIYPGNGDTSYNPKFKGKATLTVDKSSSTAYMQLSSLTSEDSAVYFCTRWDWGGYFDVWGTGTTVTVSS VL: DIQMTQTTSSLSASLGDRVTISCRASQDISNYLNWYQQKPDGTVKLLIYYTSRLHSGVPSRFSGSGSGTDYSLTISNLEQEDIATYFCQQGDTLPWTFGGGTKLGIK | no binding | binds | no binding | no binding | no binding (tested: about 800 ng/well) | no binding (tested: 10 µg/mL) | no binding (tested: about 800 ng/well) | 2.5 µg/mL and 2.6 µg/mL | 1.1 µg/mL and 0.76 µg/mL | binds | binds | – | –
3 | 17G8_hIgG1 (antibody, V domains shown) VH: EVKLVESGGGLVQPGGSLSLSCAASGFTFTDYYMSWVRQPPGKALEWLGFIRNKANGYTTEYSASVKGRFTISRDNSQSILYLQMNALRAEDSATYYCARYKLGGYFDVWGTGTTVTVSS VL: DIQMTQTTSSLSASLGDRVTISCRASQDISNYLNWYQQKPDGTVKLLIYYTSRLHSGVPSRFSGSGSGTDYSLTISNLEQEDIATYFCQQGNTLPWTFGGGTKLEIK | no binding | binds | no binding | no binding | no binding (tested: about 800 ng/well) | no binding (tested: 10 µg/mL) | no binding (tested: about 800 ng/well) | 1 /ml (as printed) and 1.5 ug/ml | 1.4 µg/mL and 0.59 µg/mL | binds | binds | – | –

The next lines start with results.

Row | binding result [4] | binding result [5] | binding result [6] | binding result [7] | binding result [10] | binding result [11] | binding result [12] | IC50 of inhibition of TGFβ1 activation [1] | IC50 of inhibition of TGFβ1 activation [2] | binding result [13] | binding result [14] | binding result [15] | Binder | further results
4 | – | – | – | – | – | – | – | – | – | – | – | binds | 28G11_H2.1L3 (antibody, human IgG1, kappa, V domains shown) VH: EVQLVESGGGLVQPGGSLRLSCAASGFTFTDYYMSWVRQAPGKGLEWLGFIRNKPQGYTTEYSASVKGRFTISRDNSQSSLYLQMNSLKTEDTAVYYCARYTGGGYFDYWGQGTLLTVSS VL: DIQMTQSPSSLSASVGDRLTISCRASQDISNYLNWYQQKPGKTVKLLIYYTSRLHSGVPSRFSGSGSGTDYTLTISSLQPEDVATYFCQQGDTLPWTFGQGTKLEIKR | –
5 | – | – | – | – | – | – | – | – | – | – | – | binds | 28G11_H2aL3a (antibody, human IgG1, kappa, V domains shown) VH: EVQLVESGGGLVQPGGSLRLSCAASGFTFTDYYMSWVRQAPGKGLEWVGFIRNKPNGYTTEYSASVKGRFTISRDNSKNSLYLQMNSLKTEDTAVYYCARYTGGGYFDYWGQGTLVTVSS VL: DIQMTQSPSSLSASVGDRLTISCRASQDISNYLNWYQQKPGKVVKLLIYYTSRLHSGVPSRFSGSGSGTDYTLTISSLQPEDVATYYCQQGDTLPWTFGQGTKLEIKR | –
